The supplement of paper PMC7877785
± gives the uncertainty stated by the source.

Assay: self-splicing fitness, log relative to wild type (ln ratio); higher = more splicing; Tetrahymena group I intron in knt gene, E. coli kanamycin selection, DiMSum; sequences stand for … in CUCUCU…GGAGGGAAAAGUUAUCAGGCAUGCACCUGGUAGCUAGUCUUUAAACCAAUAGAUUGCAUCGGUUUAAAAGGCAAGACCGUCAAAUUGCGGGAAAGGGGUCAACAGCCGUUCAGUACCAAGUCUCAGGGGAAACUUUGAGAUGGCCUUGCAAAGGGUAUGGUAAUAAGCUGACGGACAUGGUCCUAACCACGCAGCCAAGUCCUAAGUCAACAGAUCUUCUGUUGAUAUGGAUGCAGUUCACAGACUAAAUGUCGGUCGGGGAAGAUGUAUUCUUCUCAUAAGAUAUAGUCGGACCUCUCCUUAAUGGGAGCUAGCGGAUGAAGUGAUGCAACACUGGAGCCGCUGGGAACUAAUUUGUAUGCGAAAGUAUAUUGAUUAGUUUUGGAGUACUCGUGGUCG
In short: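 Library with all eight P1ex-region intron nucleotides randomised, intron inside the knt kanamycin-resistance gene on pET-22b(+), in E. coli BL21(DE3). Cells grew overnight at 37°C or 30°C on LB agar with or without 25 μg/mL kanamycin (plus 100 μg/mL carbenicillin, 50 μM IPTG, 0.2% rhamnose), in six replicate transformations. Pooled colonies were amplicon-sequenced on Illumina HiSeq 2500. DiMSum fitness is the error-weighted combination of wild-type-normalised replicate fold changes, kanamycin versus none.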

ACCAAGCAAUAUUACGUCAC
self-splicing fitness (ln) (30 °C): -3.68 ± 0.47 | self-splicing fitness (ln) (37 °C): -2.89 ± 0.27

AGGCAGCAAUAUUACGACUA
self-splicing fitness (ln) (30 °C): 0.127 ± 0.11 | self-splicing fitness (ln) (37 °C): -0.125 ± 0.12

UAUAAGCAAUAUUACGUCUC
self-splicing fitness (ln) (37 °C): -2.22 ± 0.35

UAUUAGCAAUAUUACGGGUC
self-splicing fitness (ln) (30 °C): -2.14 ± 0.37 | self-splicing fitness (ln) (37 °C): -2.29 ± 0.35

CCAAAGCAAUAUUACGAGGA
self-splicing fitness (ln) (30 °C): -3.54 ± 0.17 | self-splicing fitness (ln) (37 °C): -2.79 ± 0.18

GCUCAGCAAUAUUACGCAUU
self-splicing fitness (ln) (30 °C): -0.452 ± 0.078 | self-splicing fitness (ln) (37 °C): -0.0385 ± 0.1

CUUGAGCAAUAUUACGUGUG
self-splicing fitness (ln) (30 °C): -2.12 ± 0.07 | self-splicing fitness (ln) (37 °C): -0.901 ± 0.073

UCGAAGCAAUAUUACGGUAG
self-splicing fitness (ln) (30 °C): -1.4 ± 0.1 | self-splicing fitness (ln) (37 °C): -1.61 ± 0.11

AGAAAGCAAUAUUACGGCGU
self-splicing fitness (ln) (30 °C): 0.239 ± 0.073 | self-splicing fitness (ln) (37 °C): 0.133 ± 0.091

AAGCAGCAAUAUUACGUCCU
self-splicing fitness (ln) (30 °C): -0.341 ± 0.081 | self-splicing fitness (ln) (37 °C): -0.442 ± 0.094

UAGCAGCAAUAUUACGAUCU
self-splicing fitness (ln) (30 °C): -1.92 ± 0.081 | self-splicing fitness (ln) (37 °C): -1.08 ± 0.077

UGAGAGCAAUAUUACGCCAG
self-splicing fitness (ln) (30 °C): -3.52 ± 0.42 | self-splicing fitness (ln) (37 °C): -2.41 ± 0.35

CCUUAGCAAUAUUACGUGGU
self-splicing fitness (ln) (30 °C): -4.41 ± 0.36 | self-splicing fitness (ln) (37 °C): -1.91 ± 0.23

AACGAGCAAUAUUACGCUGG
self-splicing fitness (ln) (30 °C): -3.72 ± 0.31 | self-splicing fitness (ln) (37 °C): -0.45 ± 0.16

GUGGAGCAAUAUUACGCACG
self-splicing fitness (ln) (30 °C): -2.63 ± 0.29 | self-splicing fitness (ln) (37 °C): -2.32 ± 0.25

AUACAGCAAUAUUACGGCUG
self-splicing fitness (ln) (30 °C): -1.95 ± 0.13 | self-splicing fitness (ln) (37 °C): -2.6 ± 0.23

UAGGAGCAAUAUUACGCGUA
self-splicing fitness (ln) (30 °C): -1.12 ± 0.15 | self-splicing fitness (ln) (37 °C): -0.31 ± 0.12

CCACAGCAAUAUUACGCGUC
self-splicing fitness (ln) (30 °C): -3.13 ± 0.16 | self-splicing fitness (ln) (37 °C): -3.14 ± 0.27

GCCUAGCAAUAUUACGCGGG
self-splicing fitness (ln) (30 °C): -1.74 ± 0.17 | self-splicing fitness (ln) (37 °C): -3.1 ± 0.43

UAGUAGCAAUAUUACGGAGU
self-splicing fitness (ln) (30 °C): -4.27 ± 0.28 | self-splicing fitness (ln) (37 °C): -2.62 ± 0.16

UCCCAGCAAUAUUACGCUCA
self-splicing fitness (ln) (30 °C): -1.48 ± 0.11 | self-splicing fitness (ln) (37 °C): -0.496 ± 0.11

UUCUAGCAAUAUUACGGUAG
self-splicing fitness (ln) (30 °C): -2.29 ± 0.23 | self-splicing fitness (ln) (37 °C): -3.15 ± 0.37

AUUCAGCAAUAUUACGUCCU
self-splicing fitness (ln) (30 °C): -1.05 ± 0.066 | self-splicing fitness (ln) (37 °C): -0.0115 ± 0.11

AGGAAGCAAUAUUACGCACU
self-splicing fitness (ln) (30 °C): -0.845 ± 0.22 | self-splicing fitness (ln) (37 °C): -1.35 ± 0.29

GUAGAGCAAUAUUACGAUCC
self-splicing fitness (ln) (30 °C): -1.22 ± 0.21 | self-splicing fitness (ln) (37 °C): -0.765 ± 0.28

GGGAAGCAAUAUUACGGAAC
self-splicing fitness (ln) (30 °C): -2.09 ± 0.2 | self-splicing fitness (ln) (37 °C): -2.13 ± 0.27

UAGAAGCAAUAUUACGUCAG
self-splicing fitness (ln) (30 °C): -0.574 ± 0.078 | self-splicing fitness (ln) (37 °C): -0.0756 ± 0.092

UCGCAGCAAUAUUACGAAGA
self-splicing fitness (ln) (30 °C): -2.23 ± 0.13 | self-splicing fitness (ln) (37 °C): -1.43 ± 0.15

CUUAAGCAAUAUUACGUACU
self-splicing fitness (ln) (30 °C): -2.82 ± 0.16 | self-splicing fitness (ln) (37 °C): -2.67 ± 0.23

UUAAAGCAAUAUUACGCAUC
self-splicing fitness (ln) (30 °C): -1.88 ± 0.17 | self-splicing fitness (ln) (37 °C): -1.39 ± 0.34

ACCUAGCAAUAUUACGCGGA
self-splicing fitness (ln) (30 °C): -1.04 ± 0.085 | self-splicing fitness (ln) (37 °C): -0.0825 ± 0.086

GCCCAGCAAUAUUACGUCAC
self-splicing fitness (ln) (30 °C): -2.87 ± 0.13 | self-splicing fitness (ln) (37 °C): -2.64 ± 0.22

GUCUAGCAAUAUUACGCCUU
self-splicing fitness (ln) (30 °C): -0.385 ± 0.16 | self-splicing fitness (ln) (37 °C): 0.266 ± 0.15

UGACAGCAAUAUUACGAGCU
self-splicing fitness (ln) (30 °C): -2.11 ± 0.083 | self-splicing fitness (ln) (37 °C): -1.53 ± 0.083

GCGUAGCAAUAUUACGGCAA
self-splicing fitness (ln) (30 °C): 0.755 ± 0.46 | self-splicing fitness (ln) (37 °C): -1.01 ± 0.27

UACCAGCAAUAUUACGGGAA
self-splicing fitness (ln) (30 °C): -0.38 ± 0.087 | self-splicing fitness (ln) (37 °C): -0.618 ± 0.08

CAAGAGCAAUAUUACGGAGA
self-splicing fitness (ln) (30 °C): -2.57 ± 0.28 | self-splicing fitness (ln) (37 °C): -1.91 ± 0.22

AGGAAGCAAUAUUACGUCCG
self-splicing fitness (ln) (30 °C): -0.623 ± 0.16 | self-splicing fitness (ln) (37 °C): 0.408 ± 0.2

GAGCAGCAAUAUUACGCCCG
self-splicing fitness (ln) (30 °C): -1.84 ± 0.25 | self-splicing fitness (ln) (37 °C): -0.798 ± 0.27

AUGUAGCAAUAUUACGACCC
self-splicing fitness (ln) (30 °C): -0.73 ± 0.26 | self-splicing fitness (ln) (37 °C): -0.517 ± 0.3

AAACAGCAAUAUUACGCUGA
self-splicing fitness (ln) (30 °C): -3.16 ± 0.14 | self-splicing fitness (ln) (37 °C): -1.52 ± 0.11

AGAUAGCAAUAUUACGAGGU
self-splicing fitness (ln) (30 °C): -2.94 ± 0.24 | self-splicing fitness (ln) (37 °C): -2.17 ± 0.24

GACUAGCAAUAUUACGUUAC
self-splicing fitness (ln) (30 °C): -2.46 ± 0.19 | self-splicing fitness (ln) (37 °C): -1.84 ± 0.22

UCUAAGCAAUAUUACGUUAA
self-splicing fitness (ln) (30 °C): -3.72 ± 0.32 | self-splicing fitness (ln) (37 °C): -1.67 ± 0.2

GGGCAGCAAUAUUACGCCUG
self-splicing fitness (ln) (30 °C): -1.27 ± 0.14 | self-splicing fitness (ln) (37 °C): 0.02 ± 0.13

ACGCAGCAAUAUUACGGUAC
self-splicing fitness (ln) (30 °C): -1.03 ± 0.18 | self-splicing fitness (ln) (37 °C): -2.48 ± 0.45

AUAGAGCAAUAUUACGCUAC
self-splicing fitness (ln) (30 °C): -2.79 ± 0.2 | self-splicing fitness (ln) (37 °C): -2.36 ± 0.2
